Test results as given in publication PMC11997501 (Molecular Therapy, 2025).

Target: the molecule itself
Assay: western blot after SDS-PAGE of partially denatured samples

B1: murine MLC1 (natural protein, mouse (endogenous in C57BL/6J brain), UniProt Q8VHK5 1-382, looked up)
chain: MTREGQFREELGYDRMPTLERGRQDAGRQDPGSYTPDSKPKDLQLSKRLPPCFSYKTWVFSVLMGSCLLVTSGFSLYLGNVFPSEMDYLRCAAGSCIPSAIVSFAVGRRNVSAIPNFQILFVSTFAVTTTCLIWFGCKLILNPSAININFNLILLLLLELLMAATVIISARSSEEPCKKKKGSISDGSNILDEVTFPARVLKSYSVVEVIAGVSAVLGGVIALNVEEAVSGPHLSVTFFWILVACFPSAIASHVTAECPSKCLVEVLIAISSLTSPLLFTASGYLSFSVMRVVEIFKDYPPAIKSYDVLLLLLLLLLLLQGGLNTGTAIQCVSFKVSARLQAASWDPQSCPQERPAGEVVRGPLKEFDKEKAWRAVVVQMAQ
- stoichiometry N: 2
